Data published in US20020137891A1, “Protein scaffold and its use to multimerise monomeric polypeptides” (priority 1999, published 2002).

Key:
[1] = biological target: T1, pig heart mitochondrial malate dehydrogenase (mtMDH) (Sus scrofa, UniProt P00346); assay: In vitro refolding and aggregation protection of heat- and dithiothreitol-denatured mtMDH; assay type: biochemical; conditions: reactivation at 25° C., chaperone alone, FIG. 7b
T1 construct: pig heart mitochondrial malate dehydrogenase (mtMDH; Boehringer-Mannheim); purchased Boehringer-Mannheim; host or cells: pig heart
T1 sequence (P00346 25-338): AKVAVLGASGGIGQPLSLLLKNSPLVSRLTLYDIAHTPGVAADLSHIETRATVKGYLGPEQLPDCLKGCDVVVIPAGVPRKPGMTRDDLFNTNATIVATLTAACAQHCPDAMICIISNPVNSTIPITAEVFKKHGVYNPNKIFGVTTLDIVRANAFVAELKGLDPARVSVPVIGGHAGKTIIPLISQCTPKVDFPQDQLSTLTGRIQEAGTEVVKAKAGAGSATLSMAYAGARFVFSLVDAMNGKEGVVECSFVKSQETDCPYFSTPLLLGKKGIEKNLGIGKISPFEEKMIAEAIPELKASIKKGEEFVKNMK
Procedure: In vitro refolding experiments. Refolding assays of pig heart mitochondrial malate dehydrogenase (mtMDH; Boehringer-Mannheim) and aggregation protection were carried out essentially as described (Peres Ben-Zvi, A. P., Chatellier, J., Fersht, A. R. & Goloubinoff, P. (1998) Proc. Natl. Acad. Sci. U.S.A. 95, 15275-15280). The concentrations of MC7 used were between 8-16 μM (reporter to protomer).

GroES = GroES (Escherichia coli, UniProt P0A6F9); conditions: ELISA; proteins coated at 10 μg/mL, GroES at 10 μg/mL, 25° C.
Procedure: GroES binding and competition assays by ELISA (enzyme-linked immunosorbant assay). Proteins were coated onto plastic microtitre plates (Maxisorb, Nunc) overnight at 4° C. at a concentration of 10 μg/mL in carbonate buffer (50 mM NaHCO3, pH 9.6). Plates were blocked for 1 hour at 25° C. with 2% Marvel in PBS (phosphate buffered saline: 25 mM NaH2PO4, 125 mM NaCl, pH 7.0). GroES, at 10 μg/mL in 100 μL of 10 mM Tris-HCl, 200 mM KCl, pH 7.4, were bound at 25° C. for 1 hour. Bound GroES were detected with rabbit anti-GroES antibodies (Sigma) followed by anti-rabbit immunoglobulins horseradish peroxidase conjugated antibodies (Sigma).

bacteriophage λ (b2cI) = assay: Growth (plaque formation) of bacteriophage λ at 30° C. in transformed wild-type and groEL mutant strains; assay type: cell-based, E. coli
Excerpt: Bacterial and bacteriophage strains. The E. coli strains used in this study were: C41(DE3), a mutant of BL21(DE3) capable of expressing toxic genes (Miroux, B. & Walker, J. E. (1996) J. Mol. Biol. 260, 289-298); SV2 (B178groEL44), SV3 (B178groEL59) and SV6 (B178groEL673): isogenic strains carrying temperature-sensitive alleles of groEL; SV1(=B178) (Georgopoulos, C., Hendrix, R. W., Casjens, S. R. & Kaiser, A. D. (1973) J. Mol. Biol. 76, 45-60), AI90 (ΔgroEL::kan^R) [pBAD-EL] (Ivic, A., Olden, D., Wallington, E. J. & Lund, P. A. (1997) Gene 194, 1-8), and TG1 (Gibson, T. J. (1984) Ph.D. thesis, University of Cambridge, U.K). Bacteriophage λb2cI (Zeilstra-Ryalls, J., Fayet, O., Baird, L. & Georgopoulos, C. (1993) J. Bacteriol. 175, 1134-1143) was used according to standard methods (Arber, W., Enquist, L., Hohn, B., Murray, N. E. & Murray, K. (1983) in Lambda II., ed. R. W. Hendrix, J. W. r., F. W. Stahl and R. A. Weisberg (Cold Spring Harbor Laboratory, Cold Spring Harbor, N.Y.), pp. 433-466); plaque formation was assayed at 30° C. T4D0, a derivative of bacteriophage T4 (Zeilstra-Ryalls, J., Fayet, O., Baird, L. & Georgopoulos, C. (1993) J. Bacteriol. 175, 1134-1143), was used according to standard methods (Karam, J. D. (1994) Molecular biology of bacteriophage T4. (American Society for Microbiology, Washington, D.C.)); plaque formation was assayed at 37° C.
Bacteriophage λ requires the chaperonins GroES and GroEL for protein folding during morphogenesis; bacteriophage T4 requires GroEL and Gp31, the latter being encoded by the bacteriophage genome (Zeilstra-Ryalls, J., Fayet, O. & Georgopoulos, C. (1991) Annu. Rev. Microbiol. 45, 301-325). Nine groE alleles which fail to support λ growth have been sequenced (Zeilstra-Ryalls, J., Fayet, O., Baird, L. & Georgopoulos, C. (1993) J. Bacteriol. 175, 1134-1143). We examined the ability of MC7, over-expressed from the constitutive tet promoter on a high-copy number vector (see FIG. 2), to complement three mutant groEL alleles for plaque formation by λ (b2cI) at 30° C. (Table 3) and T4 at 37° C. (Table 4).

[2] = test system: mutant Huntingdon exon 1-expressing PC12 and SH-SY5Y cells; conditions: overexpression in PC12 and SH-SY5Y cells; D. Rubinsztein et al.; cited from earlier work

Chain of GroES (P0A6F9 whole entry): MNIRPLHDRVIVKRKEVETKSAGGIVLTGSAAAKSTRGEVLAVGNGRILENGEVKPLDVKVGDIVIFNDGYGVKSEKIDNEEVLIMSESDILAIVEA

Molecule	rate of refolding of denatured mtMDH [1]	Binding to GroES (GroES)	Effect of over-expression on plaque formation by bacteriophage λ in SV1 (groE^+) (in words) (bacteriophage λ (b2cI))	cell death [2]	proportion of cells with inclusions [2]
GroEL(191-376): monomeric minichaperone, apical domain of GroEL residues 191 to 376, sht removed by thrombin cleavage (protein, UniProt P0A6F5 191-376, looked up, fragment, apical domain, monomeric minichaperone, apical domain of GroEL residues 191 to 376, sht removed by thrombin cleavage) EGMQFDRGYLSPYFINKPETGAVELESPFILLADKKISNIREMLPVLEAVAKAGKPLLIIAEDVEGEALATLVVNTMRGIVKVAAVKAPGFGDRRKAMLQDIATLTGGTVISEEIGMELEKATLEDLGQAKRVVINKDTTTIIDGVGEEAAIQGRVAQIRQQIEEATSDYDREKLQERVAKLAGGV	ineffective in enhancing the refolding rate	did not detectably bind	had no effect on plaque counts	–	–
GroEL(191-345): GroEL(191-345) minichaperone monomer (protein, UniProt P0A6F5 191-345, looked up, fragment, apical domain, GroEL(191-345) minichaperone monomer) EGMQFDRGYLSPYFINKPETGAVELESPFILLADKKISNIREMLPVLEAVAKAGKPLLIIAEDVEGEALATLVVNTMRGIVKVAAVKAPGFGDRRKAMLQDIATLTGGTVISEEIGMELEKATLEDLGQAKRVVINKDTTTIIDGVGEEAAIQGR	–	–	–	reduced cell death	reduced slightly but significantly
